To fix the notation:
B1: EPB41L3 (parent)
chain: SDYISEFRFAPNHTKELEDKVIEL
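Note: lentivirally expressed fusions sorted by FACS into six bins by GFP to DsRed ratio, PSI derived from sequencing read proportions per bin multiplied by bin number.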

This data set covers variants of B1. The data set can be described thus: protein stability index of a GFP-peptide fusion (GPS, HEK-293T) (PSI 1-6); higher = more stable. The conditions noted are these: c terminus: a fixed tail appended.
Turning to SDYISEFRFAPNDTKELEDKVIEL [H13D], the protein stability index is 3.71. Consider SDYISEFRFAPNHTKELEVKVIEL [D19V], for which the protein stability index came to 2.09.

Turning to SDYISEFRFAPNHTKELELKVIEL [D19L], the protein stability index amounted to 2.69. With SDYISEFRFAPNHTKELEKKVIEL [D19K] the figure was 1.89; with SDYISEFRFAPNHTKELEIKVIEL [D19I], 2.71. Take SDYISEFRFAPNHTKELEAKVIEL [D19A]: the protein stability index came out at 1.49. The value for SDYISEFRFAPNHTKELEPKVIEL [D19P] was 2.19; that for SDYISEFRFAPNHTKELEGKVIEL [D19G] was 2.06; that for SDYISEFRFAPNHTKELEMKVIEL [D19M] was 2.03.

Take SDYISEFRFAPNHTKELEFKVIEL [D19F]: the protein stability index turned out to be 3.65.

Regarding SDYISEFRFAPNHTKELETKVIEL [D19T], the protein stability index worked out at 1.8.

As to SDYISEFRFAPNHTKELECKVIEL [D19C], the protein stability index is 2.02. Consider SDYISEFRFAPNHTKELESKVIEL [D19S], for which the protein stability index is 2.81. For the variant SDYISEFRFAPNHTKELEHKVIEL [D19H], the protein stability index is 1.86. With SDYISEFRFAPNHTKELERKVIEL [D19R] the figure was 1.39; with SDYISEFRFAPNHTKELEQKVIEL [D19Q], 1.71; with SDYISEFRFAPNHTKELEEKVIEL [D19E], 1.77. The value for SDYISEFRFAPNHTKELENKVIEL [D19N] was 1.79; that for SDYISEFRFAPNHPKELEDKVIEL [T14P] was 1.37; that for SDYISEFRFAPNHFKELEDKVIEL [T14F] was 1.97. The value for SDYISEFRFAPNHKKELEDKVIEL [T14K] was 1.4. On to SDYISEFRFAPNHGKELEDKVIEL [T14G], for which the protein stability index came out at 1.88.

Turning to SDYISEFRFAPNHEKELEDKVIEL [T14E], the protein stability index is 2.74. For SDYISEFRFAPNHHKELEDKVIEL [T14H], the protein stability index came to 1.68.

Turning to SDYISEFRFAPNHWKELEDKVIEL [T14W], the protein stability index came out at 2.18.

In the case of SDYISEFRFAPNHLKELEDKVIEL [T14L], the protein stability index came to 2.23. The value for SDYISEFRFAPNHYKELEDKVIEL [T14Y] was 2.06. With SDYISEFRFAPNHQKELEDKVIEL [T14Q] the figure was 2.55. The value for SDYISEFRFAPNHSKELEDKVIEL [T14S] was 1.76; that for SDYISEFRFAPNHVKELEDKVIEL [T14V] was 2.42; that for SDYISEFRFAPNHNKELEDKVIEL [T14N] was 2.25. With SDYISEFRFAPNHMKELEDKVIEL [T14M], the protein stability index was 2.65. On to SDYISEFRFAPNHCKELEDKVIEL [T14C], for which the protein stability index was found to be 2.02. Turning to SDYISEFRFAPNHAKELEDKVIEL [T14A], the protein stability index stood at 2.16. The value for SDYISEFRFAPNHRKELEDKVIEL [T14R] was 2.08; that for SDYISEFRFAPNHDKELEDKVIEL [T14D] was 2.49; that for SDYISEFRFAPNHIKELEDKVIEL [T14I] was 2.7.

Turning to SDYISEFRFAPNHTDELEDKVIEL [K15D], the protein stability index is 2.49. With SDYISEFRFAPNHTIELEDKVIEL [K15I] the figure was 1.9; with SDYISEFRFAPNHTHELEDKVIEL [K15H], 1.97. With SDYISEFRFAPNHTTELEDKVIEL [K15T] the figure was 2.1; with SDYISEFRFAPNHTYELEDKVIEL [K15Y], 1.63. As for SDYISEFRFAPNHTNELEDKVIEL [K15N], the protein stability index is 2.12. Regarding SDYISEFRFAPNHTFELEDKVIEL [K15F], the protein stability index turned out to be 2.15. The value for SDYISEFRFAPNHTQELEDKVIEL [K15Q] was 2.34; that for SDYISEFRFAPNHTPELEDKVIEL [K15P] was 2.29. The value for SDYISEFRFAPNHTGELEDKVIEL [K15G] was 2.1; that for SDYISEFRFAPNHTEELEDKVIEL [K15E] was 3.46. With SDYISEFRFAPNHTRELEDKVIEL [K15R] the figure was 1.74. As to SDYISEFRFAPNHTCELEDKVIEL [K15C], the protein stability index was 2.25. With SDYISEFRFAPNHTLELEDKVIEL [K15L] the figure was 1.75. With SDYISEFRFAPNHTVELEDKVIEL [K15V] the figure was 2.04; with SDYISEFRFAPNHTWELEDKVIEL [K15W], 1.77; with SDYISEFRFAPNHTSELEDKVIEL [K15S], 2.07. Consider SDYISEFRFAPNHTMELEDKVIEL [K15M], for which the protein stability index worked out at 2.25. Turning to SDYISEFRFAPNHTAELEDKVIEL [K15A], the protein stability index came out at 1.9. Take SDYISEFRFAPNHTKGLEDKVIEL [E16G]: the protein stability index came to 1.81. As for SDYISEFRFAPNHTKTLEDKVIEL [E16T], the protein stability index was 1.54.

Consider SDYISEFRFAPNHTKCLEDKVIEL [E16C], for which the protein stability index was found to be 2.17. For SDYISEFRFAPNHTKDLEDKVIEL [E16D], the protein stability index was 1.82. The value for SDYISEFRFAPNHTKMLEDKVIEL [E16M] was 3.24. On to SDYISEFRFAPNHTKALEDKVIEL [E16A], for which the protein stability index is 2.56. With SDYISEFRFAPNHTKILEDKVIEL [E16I] the figure was 2.08; with SDYISEFRFAPNHTKFLEDKVIEL [E16F], 2.81; with SDYISEFRFAPNHTKVLEDKVIEL [E16V], 1.89.

Regarding SDYISEFRFAPNHTKKLEDKVIEL [E16K], the protein stability index amounted to 1.77.

For the variant SDYISEFRFAPNHTKPLEDKVIEL [E16P], the protein stability index worked out at 1.57. With SDYISEFRFAPNHTKHLEDKVIEL [E16H] the figure was 2.65; with SDYISEFRFAPNHTKYLEDKVIEL [E16Y], 2.56; with SDYISEFRFAPNHTKLLEDKVIEL [E16L], 2.37. The value for SDYISEFRFAPNHTKSLEDKVIEL [E16S] was 2.42. The value for SDYISEFRFAPNHTKQLEDKVIEL [E16Q] was 2.3.

For SDYISEFRFAPNHTKNLEDKVIEL [E16N], the protein stability index worked out at 1.76. The value for SDYISEFRFAPNHTKRLEDKVIEL [E16R] was 2.66; that for SDYISEFRFAPNHTKWLEDKVIEL [E16W] was 2.07. SDYISEFRFAPNHTKELADKVIEL [E18A]: the protein stability index turned out to be 2.05.

For SDYISEFRFAPNHTKELCDKVIEL [E18C], the protein stability index came out at 1.44. In the case of SDYISEFRFAPNHTKELQDKVIEL [E18Q], the protein stability index turned out to be 2.42. The value for SDYISEFRFAPNHTKELLDKVIEL [E18L] was 1.77; that for SDYISEFRFAPNHTKELDDKVIEL [E18D] was 1.49. The value for SDYISEFRFAPNHTKELKDKVIEL [E18K] was 2.08. With SDYISEFRFAPNHTKELPDKVIEL [E18P] the figure was 1.47. Turning to SDYISEFRFAPNHTKELWDKVIEL [E18W], the protein stability index turned out to be 1.56. The value for SDYISEFRFAPNHTKELNDKVIEL [E18N] was 1.81; that for SDYISEFRFAPNHTKELHDKVIEL [E18H] was 2.77.

Regarding SDYISEFRFAPNHTKELRDKVIEL [E18R], the protein stability index was 2.34. With SDYISEFRFAPNHTKELIDKVIEL [E18I] the figure was 2.19. Regarding SDYISEFRFAPNHTKELGDKVIEL [E18G], the protein stability index stood at 2.53. Consider SDYISEFRFAPNHTKELFDKVIEL [E18F], for which the protein stability index stood at 1.8. Regarding SDYISEFRFAPNHTKELTDKVIEL [E18T], the protein stability index is 1.73. Take SDYISEFRFAPNHTKELSDKVIEL [E18S]: the protein stability index worked out at 2.32. The value for SDYISEFRFAPNHTKELMDKVIEL [E18M] was 1.8. On to SDYISEFRFAPNHTKELVDKVIEL [E18V], for which the protein stability index turned out to be 2.07.

For the variant SDYISEFRFAPNHTKELYDKVIEL [E18Y], the protein stability index amounted to 1.77.
